Consider two molecules from article PMC2267006, “Methylated DNA Recognition during the Reversal of Epigenetic Silencing Is Regulated by Cysteine and Serine Residues in the Epstein-Barr Virus Lytic Switch Protein”.

Data set [1] has as its target T1, Zta (Epstein-Barr virus, UniProt P03206 1-245). The data set is described as follows: competition; vs labelled ZIIIB; rank 2 of single-methyl sites; EMSA conditions not stated (cited to earlier papers); IVT proteins in rabbit reticulocyte lysate or wheat germ; competition with 6x-100x unlabelled DNA. To be noted: protein: ivt; tags: [35S]Met-labelled in EMSA; chain copies: 2. (In general: In EMSA bound probe runs differently from free probe, usually more slowly.)

Data set [2] concerns the target T1, Zta. Nature of the data set: competition; vs labelled ZIIIB; rank 1 of single-methyl sites; EMSA conditions not stated (cited to earlier papers); IVT proteins in rabbit reticulocyte lysate or wheat germ; competition with 6x-100x unlabelled DNA. To be noted: protein: ivt; tags: [35S]Met-labelled in EMSA; chain copies: 2.

T1 sequence (P03206 whole entry): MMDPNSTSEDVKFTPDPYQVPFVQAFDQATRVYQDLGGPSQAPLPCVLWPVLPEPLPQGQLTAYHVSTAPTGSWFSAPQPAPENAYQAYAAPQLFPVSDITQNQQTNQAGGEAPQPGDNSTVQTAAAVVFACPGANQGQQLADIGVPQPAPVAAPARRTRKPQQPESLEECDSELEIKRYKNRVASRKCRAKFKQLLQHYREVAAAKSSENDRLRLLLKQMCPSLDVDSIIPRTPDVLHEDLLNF

B1: ZRE3 mC-2 (dsDNA)
DNA 1: GATCTATAGCATCGCGAATTTTGA
DNA 2: TCAAAATTCGCGATGCTATAGATC
modifications: single 5mC at C13 of strand 1 (position assigned from text)
As for B1, the binding result with Zta [1] is reported as “binds”.

B2: ZRE3 mC1' (dsDNA)
DNA 1: GATCTATAGCATCGCGAATTTTGA
DNA 2: TCAAAATTCGCGATGCTATAGATC
modifications: single 5mC at the complement of G14 (position assigned from text)
On to B2, for which the binding result with Zta [2] was “binds”.
